The record followed here is patent EP2292266A1.

For experiment [1], the target named is ErbB2 (human) (UniProt P04626). Description: FRET acceptor photobleaching in fixed, HRG-treated SKBr3 cells (Alexa488 donor on Copine-III, Cy3 acceptor on ErbB2).
The target in experiment [2] is ErbB2 (human) (UniProt P04626). Description: FRET acceptor photobleaching.
Experiment [3] concerns the target pTyr1248-containing peptide of ErbB2 (desthiobiotin-…-NH2, Tyr-phosphorylated form) (human). Description: SILAC peptide affinity pull-down from T47D lysates, MRM mass spectrometry; reference is the non-phosphorylated Tyr1248 peptide.

Chain of Copine III (O75131 whole entry): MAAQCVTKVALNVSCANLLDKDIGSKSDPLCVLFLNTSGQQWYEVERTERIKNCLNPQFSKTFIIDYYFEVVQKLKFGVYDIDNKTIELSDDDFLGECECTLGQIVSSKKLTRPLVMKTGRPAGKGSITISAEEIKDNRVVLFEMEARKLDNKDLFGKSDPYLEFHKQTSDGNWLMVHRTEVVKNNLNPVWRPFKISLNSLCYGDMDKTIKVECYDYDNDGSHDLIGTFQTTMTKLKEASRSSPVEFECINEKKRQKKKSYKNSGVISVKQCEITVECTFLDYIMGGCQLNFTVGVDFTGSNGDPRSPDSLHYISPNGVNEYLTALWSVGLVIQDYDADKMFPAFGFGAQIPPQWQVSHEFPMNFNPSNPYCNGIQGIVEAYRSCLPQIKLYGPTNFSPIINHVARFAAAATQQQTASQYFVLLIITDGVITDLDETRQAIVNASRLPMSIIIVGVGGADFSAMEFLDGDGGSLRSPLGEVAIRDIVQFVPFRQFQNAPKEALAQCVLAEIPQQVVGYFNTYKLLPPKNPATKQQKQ

In turn, Copine III (from UniProt O75131 1-537) registered an FRET efficiency (E) in experiment [1] of 8.3. The FRET efficiency in experiment [2] was 8. The quantification ratio (heavy/light peak area, pTyr peptide over Tyr peptide) in experiment [3] was determined as 1.8.
